# Test system: Escherichia coli TOP10
# Assay: shrunken log2 fold change of peptide-encoding DNA abundance (4.5 h post-induction vs induction); higher = less antimicrobial activity (less host growth inhibition)
# Settings: time post-induction: 4.5 h; library: site-saturation at positions 5, 18, 19, 20
# 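Further: peptides expressed intracellularly from a pBAD plasmid library in pooled LB shake-flask culture, induced with 0.3% L-arabinose, DNA abundance read by NGS, three biological replicates, DESeq2 with apeglm shrinkage.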
row,Sequence,shrunken log2 fold change
1,RRIRIRPPRLPRPRPRPSDHPRP,-0.91
2,RRIRWRPPRLPRPRPRPCIHPRP,-0.0458
3,RRIRHRPPRLPRPRPRPQFPPRP,-0.157
4,RRIRHRPPRLPRPRPRPIALPRP,-0.355
5,RRIRHRPPRLPRPRPRPSSNPRP,-0.399
6,RRIRLRPPRLPRPRPRPNWVPRP,-0.0131
7,RRIRVRPPRLPRPRPRPFKVPRP,-0.243
8,RRIRYRPPRLPRPRPRPENTPRP,-0.879
9,RRIRRRPPRLPRPRPRPANMPRP,-0.0342
10,RRIRFRPPRLPRPRPRPNENPRP,0.00257
11,RRIRCRPPRLPRPRPRPFVNPRP,-0.521
12,RRIRSRPPRLPRPRPRPTHWPRP,0.451
13,RRIRGRPPRLPRPRPRPYFHPRP,-0.462
14,RRIRRRPPRLPRPRPRPHKGPRP,0.221
15,RRIRQRPPRLPRPRPRPRAHPRP,0.638
16,RRIRSRPPRLPRPRPRPHNWPRP,-0.248
17,RRIRQRPPRLPRPRPRPWIWPRP,0.231
18,RRIRERPPRLPRPRPRPEHTPRP,-0.154
19,RRIRERPPRLPRPRPRPINHPRP,0.198
20,RRIRIRPPRLPRPRPRPECDPRP,0.0126
21,RRIRARPPRLPRPRPRPVMYPRP,0.0749
22,RRIRARPPRLPRPRPRPTLVPRP,0.562
23,RRIRARPPRLPRPRPRPIECPRP,0.157
24,RRIRSRPPRLPRPRPRPVRLPRP,0.196
25,RRIRQRPPRLPRPRPRPNERPRP,-0.0297

row,Sequence,shrunken log2 fold change
1,RRIRERPPRLPRPRPRPGLTPRP,-0.174
2,RRIRCRPPRLPRPRPRPWRKPRP,0.119
3,RRIRARPPRLPRPRPRPPIYPRP,0.0905
4,RRIRVRPPRLPRPRPRPCMSPRP,-0.0664
5,RRIRTRPPRLPRPRPRPTAIPRP,0.0593
6,RRIRPRPPRLPRPRPRPESIPRP,-0.0804
7,RRIRPRPPRLPRPRPRPQMKPRP,-0.151
8,RRIRIRPPRLPRPRPRPFGKPRP,-0.0569
9,RRIRNRPPRLPRPRPRPTKHPRP,-0.0431
10,RRIRLRPPRLPRPRPRPLTTPRP,-0.0027
11,RRIRRRPPRLPRPRPRPQVCPRP,-0.175
12,RRIRRRPPRLPRPRPRPGIYPRP,0.0548
13,RRIRIRPPRLPRPRPRPNTWPRP,-0.406
14,RRIRMRPPRLPRPRPRPTEVPRP,0.598
15,RRIRWRPPRLPRPRPRPQWHPRP,0.0415
16,RRIRARPPRLPRPRPRPWRMPRP,0.0537
17,RRIRDRPPRLPRPRPRPEDTPRP,0.509
18,RRIRHRPPRLPRPRPRPMNHPRP,-0.738
19,RRIRDRPPRLPRPRPRPSFFPRP,-0.168
20,RRIRVRPPRLPRPRPRPYVCPRP,-0.525
21,RRIRVRPPRLPRPRPRPYWLPRP,-0.411
22,RRIRGRPPRLPRPRPRPGLCPRP,0.957
23,RRIRDRPPRLPRPRPRPEMYPRP,0.363
24,RRIRRRPPRLPRPRPRPECYPRP,0.368
25,RRIRDRPPRLPRPRPRPRWSPRP,0.264

row,Sequence,shrunken log2 fold change
1,RRIRPRPPRLPRPRPRPYRTPRP,-0.111
2,RRIRLRPPRLPRPRPRPEPQPRP,0.728
3,RRIRLRPPRLPRPRPRPHWCPRP,-0.0751
4,RRIRRRPPRLPRPRPRPKFCPRP,0.175
5,RRIRQRPPRLPRPRPRPHIGPRP,-0.0345
6,RRIRSRPPRLPRPRPRPTNLPRP,-0.215
7,RRIRNRPPRLPRPRPRPEPGPRP,0.321
8,RRIRQRPPRLPRPRPRPGENPRP,-0.0193
9,RRIRLRPPRLPRPRPRPFLRPRP,-0.429
10,RRIRTRPPRLPRPRPRPSRGPRP,0.178
11,RRIRRRPPRLPRPRPRPPDCPRP,0.326
12,RRIRIRPPRLPRPRPRPHYTPRP,-0.591
13,RRIRERPPRLPRPRPRPSEQPRP,-0.0297
14,RRIRCRPPRLPRPRPRPVRAPRP,0.486
15,RRIRKRPPRLPRPRPRPGQYPRP,0.0797
16,RRIRHRPPRLPRPRPRPKGFPRP,0.0595
17,RRIRERPPRLPRPRPRPHSSPRP,-0.0464
18,RRIRMRPPRLPRPRPRPNVAPRP,0.099
19,RRIRPRPPRLPRPRPRPCGDPRP,0.078
20,RRIRPRPPRLPRPRPRPRFCPRP,0.225
21,RRIRERPPRLPRPRPRPSKKPRP,-0.645
22,RRIRVRPPRLPRPRPRPRMWPRP,0.271
23,RRIRGRPPRLPRPRPRPRPEPRP,0.667
24,RRIRTRPPRLPRPRPRPISSPRP,-0.0114
25,RRIRRRPPRLPRPRPRPMWQPRP,0.381

row,Sequence,shrunken log2 fold change
1,RRIRGRPPRLPRPRPRPYHVPRP,-0.0512
2,RRIRIRPPRLPRPRPRPCWCPRP,-0.063
3,RRIRERPPRLPRPRPRPETWPRP,-0.0594
4,RRIRGRPPRLPRPRPRPRTNPRP,0.588
5,RRIRHRPPRLPRPRPRPVNKPRP,-0.579
6,RRIRIRPPRLPRPRPRPDMLPRP,-0.618
7,RRIRTRPPRLPRPRPRPMANPRP,-0.102
8,RRIRARPPRLPRPRPRPFWDPRP,0.00119
9,RRIRNRPPRLPRPRPRPMKAPRP,-0.158
10,RRIRWRPPRLPRPRPRPPKMPRP,0.172
11,RRIRLRPPRLPRPRPRPPTIPRP,0.168
12,RRIRSRPPRLPRPRPRPLIPPRP,-0.324
13,RRIRLRPPRLPRPRPRPSWNPRP,-0.342
14,RRIRSRPPRLPRPRPRPGNQPRP,-0.0918
15,RRIRSRPPRLPRPRPRPKGVPRP,0.0137
16,RRIRMRPPRLPRPRPRPISKPRP,0.316
17,RRIRVRPPRLPRPRPRPTTTPRP,0.1
18,RRIRFRPPRLPRPRPRPEFHPRP,-0.342
19,RRIRERPPRLPRPRPRPWWWPRP,0.0554
20,RRIRMRPPRLPRPRPRPRAHPRP,0.758
21,RRIRTRPPRLPRPRPRPTFRPRP,-0.0105
22,RRIRNRPPRLPRPRPRPIQTPRP,-0.0112
23,RRIRNRPPRLPRPRPRPKQDPRP,-0.0415
24,RRIRVRPPRLPRPRPRPTRFPRP,0.0403
25,RRIRLRPPRLPRPRPRPEPFPRP,-0.0343

row,Sequence,shrunken log2 fold change
1,RRIRIRPPRLPRPRPRPEENPRP,-0.306
2,RRIRGRPPRLPRPRPRPTETPRP,0.559
3,RRIRSRPPRLPRPRPRPKSTPRP,-0.556
4,RRIRCRPPRLPRPRPRPIEGPRP,0.119
5,RRIRHRPPRLPRPRPRPIKRPRP,-0.0154
6,RRIRTRPPRLPRPRPRPYCAPRP,-0.732
7,RRIRARPPRLPRPRPRPLRLPRP,0.809
8,RRIRNRPPRLPRPRPRPNNVPRP,-0.943
9,RRIRNRPPRLPRPRPRPSEKPRP,-0.0315
10,RRIRQRPPRLPRPRPRPVVRPRP,0.169
11,RRIRTRPPRLPRPRPRPMLYPRP,-0.131
12,RRIRYRPPRLPRPRPRPNPYPRP,-0.0428
13,RRIRSRPPRLPRPRPRPRDGPRP,1.5
14,RRIRVRPPRLPRPRPRPYYQPRP,-0.245
15,RRIRQRPPRLPRPRPRPHCIPRP,0.0493
16,RRIRNRPPRLPRPRPRPVDFPRP,-0.262
17,RRIRNRPPRLPRPRPRPIKWPRP,-0.498
18,RRIRKRPPRLPRPRPRPMGGPRP,0.0559
19,RRIRMRPPRLPRPRPRPWNNPRP,-0.964
20,RRIRTRPPRLPRPRPRPIWGPRP,-0.144
21,RRIRVRPPRLPRPRPRPNGWPRP,0.0568
22,RRIRYRPPRLPRPRPRPWRAPRP,-0.142
23,RRIRARPPRLPRPRPRPMTAPRP,0.433
24,RRIRGRPPRLPRPRPRPTNKPRP,0.242
25,RRIRPRPPRLPRPRPRPVHTPRP,-0.036

row,Sequence,shrunken log2 fold change
1,RRIRWRPPRLPRPRPRPAQVPRP,0.565
2,RRIRRRPPRLPRPRPRPRFLPRP,0.15
3,RRIRKRPPRLPRPRPRPRGVPRP,0.782
4,RRIRKRPPRLPRPRPRPMGYPRP,-0.0267
5,RRIRTRPPRLPRPRPRPQNAPRP,-0.12
6,RRIRNRPPRLPRPRPRPISIPRP,0.0125
7,RRIRVRPPRLPRPRPRPDCTPRP,-0.068
8,RRIRGRPPRLPRPRPRPEEVPRP,1.53
9,RRIRARPPRLPRPRPRPYLPPRP,0.0397
10,RRIRFRPPRLPRPRPRPDTWPRP,0.0899
11,RRIRFRPPRLPRPRPRPCIYPRP,-0.191
12,RRIRERPPRLPRPRPRPLWAPRP,0.274
13,RRIRYRPPRLPRPRPRPCIMPRP,-3.3
14,RRIRHRPPRLPRPRPRPCRGPRP,0.00172
15,RRIRCRPPRLPRPRPRPQRWPRP,0.294
16,RRIRNRPPRLPRPRPRPDLCPRP,-0.0418
17,RRIRARPPRLPRPRPRPYHMPRP,0.00865
18,RRIRNRPPRLPRPRPRPECPPRP,0.012
19,RRIRSRPPRLPRPRPRPCFYPRP,-0.39
20,RRIRWRPPRLPRPRPRPRSQPRP,0.434
21,RRIRFRPPRLPRPRPRPCFLPRP,-0.623
22,RRIRRRPPRLPRPRPRPVRPPRP,0.512
23,RRIRSRPPRLPRPRPRPITCPRP,-0.286
24,RRIRPRPPRLPRPRPRPGASPRP,0.344
25,RRIRCRPPRLPRPRPRPAPTPRP,0.591

# Source: the supplement of paper PMC9112550, “Optimization of the antimicrobial peptide Bac7 by deep mutational scanning” (BMC Biology, 2022)
